This assay concerns the target aggrecan (core protein carrying chondroitin sulfate chains) made by rat chondrosarcoma LTC cells (rat) (UniProt P07897).

As for “human chondroitin sulfate N-acetylgalactosaminyltransferase-1 (enzyme)”, the chondroitin sulfate synthesis activity (35S sulfate label in chondroitinase ABC-digested GAG fractions of transfected LTC cells and culture medium) amounted to 2.2 fold. With “human chondroitin sulfate glucuronyltransferase (enzyme)” the figure was 1.6 fold.

Values taken from patent publication US20070203087A1.
